Source: paper PMC5862715

Experiments:
Assay in all cases: SDS-PAGE without pre-heating, with zymogram; crude enzymes (high concentration of (NH4)2SO4) in loading buffer with 10% SDS, not pre-heated, 10% polyacrylamide gel; compared with samples heated at 100 °C for 5 min; dimer band active on xylan plate
[1] = molecular target: Xyn10A, GH10 family xylanase from Aspergillus fumigatus Z5 (Aspergillus fumigatus Z5)
[2] = molecular target: Xyn10AdC, CBM1 removed Xyn10A (Aspergillus fumigatus Z5)
[3] = molecular target: Xyn10AdLC, CBM1 and linker region removed Xyn10A (Aspergillus fumigatus Z5)

Xyn10A, GH10 family xylanase from Aspergillus fumigatus Z5 (enzyme)
stoichiometry N [1]: 2

Xyn10AdC, CBM1 removed Xyn10A (domain or fragment)
stoichiometry N [2]: 2

Xyn10AdLC, CBM1 and linker region removed Xyn10A (domain or fragment)
stoichiometry N [3]: 2
